The record followed here is US7674604.

The target in assay [1] is LFA-1 mutant K287C/K294C (αL K287C/K294C with β2) on 293T or K562 transfectants (human) (UniProt P05107). The assay can be described thus: flow cytometry, 293T, normalized to TS2/4.
Assay [2] concerns the target LFA-1 mutant L289C/K294C (αL L289C/K294C with β2) on 293T or K562 transfectants (human) (UniProt P05107). The assay can be described thus: flow cytometry, 293T, normalized to TS2/4. On the technique in general: A flow cytometer gives signals particle by particle.
Assay [3] deals with LFA-1 mutant K287C/K294C (αL K287C/K294C with β2) on 293T or K562 transfectants (human) (UniProt P05107). The assay can be described thus: flow cytometry, K562, normalized to TS2/4.
Assay [4] has as its target LFA-1 mutant L289C/K294C (αL L289C/K294C with β2) on 293T or K562 transfectants (human) (UniProt P05107). The assay can be described thus: flow cytometry, K562, normalized to TS2/4.
Assay [5] has as its target LFA-1 single cysteine substitution mutant L289C on 293T transfectants (human) (UniProt P05107). The assay can be described thus: flow cytometry, 293T, normalized to TS2/4.
The target of assay [6] is LFA-1 single cysteine substitution mutant K294C on 293T transfectants (human) (UniProt P05107). The assay can be described thus: flow cytometry, 293T, normalized to TS2/4.
The target of assay [7] is LFA-1 single cysteine substitution mutant K287C on 293T transfectants (human) (UniProt P05107). The assay can be described thus: flow cytometry, 293T, normalized to TS2/4.
Assay [8] deals with Mac-1 mutant D294C/Q311C (with β2) on K562 transfectants (human) (UniProt P05107). The assay can be described thus: flow cytometry on K562 stable transfectants with intact Mac-1, row 'D294C/Q311C'.
Assay [9] addresses wild-type Mac-1 (αMβ2) on 293T or K562 transfectants (human) (UniProt P05107). The assay can be described thus: flow cytometry on K562 stable transfectants with intact Mac-1, row 'Wild-type'.
Assay [10] addresses Mac-1 mutant Q163C/Q309C (αM Q163C/Q309C with β2) on 293T or K562 transfectants (human) (UniProt P05107). The assay can be described thus: flow cytometry on K562 stable transfectants with intact Mac-1, row printed 'Q163/Q309C'.

Take “anti-β2 (CD18) monoclonal antibody CBRLFA-1/7”: the % wild-type binding (% of wild-type) stood at 95.3 in assay [1], 91.7 in assay [2], 95.2 in assay [3] and 97.2 in assay [4].

For “anti-β2 (CD18) monoclonal antibody TS1/18”, the % wild-type binding (% of wild-type) in assay [1] came to 99.8; in assay [5], 87.3; in assay [6] it was 108; in [2] it was 95.7; in assay [7], 87.9; in [3], 97.4. In assay [4], the % wild-type binding (% of wild-type) was 106.

For monoclonal antibody 25-3-1, the % wild-type binding (% of wild-type) amounted to 93.1 in [1], 90.9 in assay [2], 88.5 in assay [3] and 85.7 in [4].

As for monoclonal antibody BL5, the % wild-type binding (% of wild-type) in assay [1] came to 92.4; in assay [5] it was 92.4; in assay [6], 88.3; in assay [2], 85.8; in [7], 93.3; in assay [3] it was 92.4. Also, the % wild-type binding (% of wild-type) in [4] was determined as 97.6.

As to monoclonal antibody CBRM1/5, the mean fluorescent intensity was 262 in assay [8], 25 in assay [9] and 208 in assay [10].

For the substance monoclonal antibody CBRM1/32, the mean fluorescent intensity in [8] is 81; in assay [9], 120; in [10] it was 115.

As for monoclonal antibody CLBLFA-1/1, the values for the % wild-type binding (% of wild-type) in assay [3] and in assay [4] were 96.5 and 100, respectively.

In the case of monoclonal antibody F8.8, the % wild-type binding (% of wild-type) in assay [1] came out at 93.7; in [5] it was 99.6; in assay [6], 95.5; in [2], 83.6; in assay [7], 95.9; in [3] it was 102. The substance also came in with a % wild-type binding (% of wild-type) in assay [4] of 93.9.

Turning to monoclonal antibody May.035, the % wild-type binding (% of wild-type) in assay [1] came out at 92.6; in assay [5] it was 95.4; in [6] it was 106; in assay [2] it was 82.1; in assay [7], 95.8; in [3], 92.6. Further, the % wild-type binding (% of wild-type) in assay [4] was determined as 101.

Consider monoclonal antibody S6F1, for which the % wild-type binding (% of wild-type) worked out at 89.4 in assay [1]; 86.4 in assay [5]; 92.3 in assay [6]; 95.3 in assay [2]; 98.3 in assay [7]; 97.4 in assay [3]. The substance further had a % wild-type binding (% of wild-type) in assay [4] of 85.7.

For “mouse anti-human αL (CD11a) monoclonal antibody TS1/11”, the % wild-type binding (% of wild-type) in [1] is 94.4; in assay [2] it was 93.7; in assay [3], 96; in [4], 105.

In the case of “mouse anti-human αL (CD11a) monoclonal antibody TS1/12”, the % wild-type binding (% of wild-type) came out at 88.7 in assay [1]; 104 in assay [5]; 93.7 in [6]; 102 in assay [2]; 99.3 in assay [7]; 87.3 in assay [3]. The substance also returned a % wild-type binding (% of wild-type) in assay [4] of 106.

On to “mouse anti-human αL (CD11a) monoclonal antibody TS2/6”, for which the % wild-type binding (% of wild-type) in [1] stood at 84.9; in assay [5], 88.2; in assay [6] it was 91.7; in assay [2] it was 78.6; in assay [7] it was 91.4; in assay [3], 89.2. The substance further yielded a % wild-type binding (% of wild-type) in assay [4] of 95.9.

In the case of “mouse anti-human αL (CD11a) monoclonal antibody TS2/14”, the % wild-type binding (% of wild-type) was 85.5 in assay [1]; 100 in assay [5]; 103 in assay [6]; 83.3 in assay [2]; 103 in assay [7]; 95.4 in assay [3]. This substance also registered a % wild-type binding (% of wild-type) in assay [4] of 103.
